Experimental findings from patent US20170051065A1 (Hoffmann-La Roche, published 2017) are described below.

For experiment [1], the target named is human mutant CSF-1R L301S Y969F (human) (UniProt P07333). The experiment is described as follows: cell-based or functional assay.
Experiment [2] has as its target human wildtype CSF-1R (wt CSF-1R) (human, UniProt P07333 20-972). The experiment is described as follows: cell-based or functional assay.

In experiment [1], “goat polyclonal anti-CSF-1R antibody ab10676 (abcam)” had a Mutant CSF-1R IC30 (cell viability of NIH3T3 mutant CSF-1R spheroids, CellTiterGlo) of more than 20 µg/mL and an inhibition of cell viability at 20 µg/ml (mutant CSF-1R spheroids) of 0%. This substance showed a wtCSF-1R IC30 (cell viability of NIH3T3-CSF-1R spheroids, CellTiterGlo) in experiment [2] of 14.2 µg/mL.
